B1: CPEB3 Ribozyme (parent)
chain: UAACAGGGGGCCACAGCAGAAGCGUUCACGUCGCAGCCCCUGUCAGAUUCUGGUGAAUCUGCGAAUUCUGCUGUAUAUCUC

Variants of: B1
Assay: self-cleavage, relative activity (ratio to wild type); higher = more cleavage; in vitro, sequencing
How it was run: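 After error-prone PCR and barcoding, CPEB3 ribozyme mutant libraries were transcribed with T7 RNA polymerase at 37°C for 5 hours, then given 15 min with DNase I before an EDTA stop, and they cleaved during both steps. Reverse transcription with template switching preceded Illumina sequencing. Relative activity divides a variant's cleaved/total read fraction by the unmutated ribozyme's. At least 5 reads were required per variant, and three batches were averaged.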

Variant	self-cleavage
UAACAGGGGGCCACUGCAGAAGCGUUCAUGUCGCAGCCCCUGUCAGAUUCUGGUGAAUCUGCGAAUUCUGCUGUAUAUCUC	0.5
UAACAGGGGGCCACUGCAGAAGCGUUCGCGUCGCAGCCCCUGUCAGAUUCUGGUGAAUCUGCGAAUUCUGCUGUAUAUCUC	0.22
UAACAGGGGGCCACUGCAGAAGCGUUCCCGUCGCAGCCCCUGUCAGAUUCUGGUGAAUCUGCGAAUUCUGCUGUAUAUCUC	0.33
UAACAGGGGGCCACUGCAGAAGCGUUCUCGUCGCAGCCCCUGUCAGAUUCUGGUGAAUCUGCGAAUUCUGCUGUAUAUCUC	0.38
UAACAGGGGGCCACUGCAGAAGCGUUCACGUCGCAGCCCCUGUCAGAUUCUGGUGAAUGUGCGAAUUCUGCUGUAUAUCUC	0.1
UAACAGGGGGCCACUGCUGAAGCGUUCACGUCGCAGCCCCUGUCAGAUUCUGGUGAAUCUGCGAAUUCUGCUGUAUAUCUC	0.25
UAACAGGGGGCCACUGCCGAAGCGUUCACGUCGCAGCCCCUGUCAGAUUCUGGUGAAUCUGCGAAUUCUGCUGUAUAUCUC	0.35
UAACAGGGGGCCACUGCGGAAGCGUUCACGUCGCAGCCCCUGUCAGAUUCUGGUGAAUCUGCGAAUUCUGCUGUAUAUCUC	0.29
UAACAGGGGGCCACUGCAGAAGCGUUCACGUCGCAGCCCCUGUCAGAUUCUGGUGAAUCUGCGAUUUCUGCUGUAUAUCUC	0.37
UAACAGGGGGCCACUGCAGAAGCGUUCACGUCGCAGCCCCUGUCAGAUUCUGGUGAAUCUGCGAGUUCUGCUGUAUAUCUC	0.29
UAACAGGGGGCCACUGCAGAAGCGUUCACGUCGAAGCCCCUGUCAGAUUCUGGUGAAUCUGCGAAUUCUGCUGUAUAUCUC	0.37
UAACAGGGGGCCACUGCAGAAGCGUUCACGUCGUAGCCCCUGUCAGAUUCUGGUGAAUCUGCGAAUUCUGCUGUAUAUCUC	0.29
UAACAGGGGGCCACUGCAGAAGCGUUCACGUCGGAGCCCCUGUCAGAUUCUGGUGAAUCUGCGAAUUCUGCUGUAUAUCUC	0.27
UAACAGGGGGCCACUGCAGAAGCGUUCACGUCGCAGCCCCUGUCAGAUUCUGGUGAAUCUGUGAAUUCUGCUGUAUAUCUC	0.18
UAACAGGGGGCCACUGCAGAAGCGUUCACGUCGCAGCCCCUGUCAGAUUCUGGUGAAUCUGAGAAUUCUGCUGUAUAUCUC	0.14
UAACAGGGGGCCACUGCAGAAGCGUUCACGUCGCAGCCCCUGUCAGAUUCUGGUGAAUCUGCGAAUUCUGCUGUAUAUCUC	0.76
UAACAGGGGGCCACUGCAGAAGCGUUCACGUCGCAGCCCCUGUCAGAUUGUGGUGAAUCUGCGAAUUCUGCUGUAUAUCUC	0.26

Variant	self-cleavage
UAACAGGGGGCCACUGCAGAAGCGUUCACGUCGCAGCCCCUGUCAGGUUCUGGUGAAUCUGCGAAUUCUGCUGUAUAUCUC	0.51
UAACAGGGGGCCACUGCAGAAGCGUUCACGUCGCAGCCCCUGUCAGUUUCUGGUGAAUCUGCGAAUUCUGCUGUAUAUCUC	0.34
UAACAGGGGGCCACUGCAGAAGCGUUCACGUCGCAGCCCCUGUCAGCUUCUGGUGAAUCUGCGAAUUCUGCUGUAUAUCUC	0.29
UAACAGGGGGCCACUGCAGAAGCGUUUACGUCGCAGCCCCUGUCAGAUUCUGGUGAAUCUGCGAAUUCUGCUGUAUAUCUC	0.19
UAACAGGGGGCCACUGCAGAAGCGUUCACGUCGCAGCCCGUGUCAGAUUCUGGUGAAUCUGCGAAUUCUGCUGUAUAUCUC	0.18
UAACAGGGGGCCACUGCAGAAGCGUUCACGUCGCAGCCCAUGUCAGAUUCUGGUGAAUCUGCGAAUUCUGCUGUAUAUCUC	0.31
UAACAGGGGGCCACUGCAGAAGCGUUCACGUCGCAGCCCUUGUCAGAUUCUGGUGAAUCUGCGAAUUCUGCUGUAUAUCUC	0.55
UAACAGGGGGCCACUGCAGAGGCGUUCACGUCGCAGCCCCUGUCAGAUUCUGGUGAAUCUGCGAAUUCUGCUGUAUAUCUC	0.35
UAACAGGGGGCCACUGCAGACGCGUUCACGUCGCAGCCCCUGUCAGAUUCUGGUGAAUCUGCGAAUUCUGCUGUAUAUCUC	0.36
UAACAGGGGGCCACUGCAGAUGCGUUCACGUCGCAGCCCCUGUCAGAUUCUGGUGAAUCUGCGAAUUCUGCUGUAUAUCUC	0.19
UAACAGGGGGCCACUGCAGAAGCGUUCACGUCGCGGCCCCUGUCAGAUUCUGGUGAAUCUGCGAAUUCUGCUGUAUAUCUC	1.24
UAACAGGGGGCCACUGCAGAAGCGUUCACGUCGCUGCCCCUGUCAGAUUCUGGUGAAUCUGCGAAUUCUGCUGUAUAUCUC	0.51
UAACAGGGGGCCACUGCAGAAGCGUUCACGUCGCAGCCCCUGUCAGAUUCUGGUGAAUCUGCGAAUUCUGCUGUAUCUCUC	0.41
UAACAGGGGGCCACUGCAGAAGCGUUCACGUCGCAGCCCCUGUCAGAUUCUGGUGAAUCUGCGAAUUCUGCUGUAUGUCUC	0.87
UAACAGGGGGCCACUGCAGAAGCGUUCACGUCGCAGCCCCUGUCAGAUUCUGGUGAAUCUGCGAAUUCUGCUGUAUUUCUC	0.71
UAACAGGGGGCCACUGCAGAAGCGUUCACGUCGCAGCCACUGUCAGAUUCUGGUGAAUCUGCGAAUUCUGCUGUAUAUCUC	0.24
UAACAGGGGGCCACUGCAGAAGCGUUCACGUCGCAGCCUCUGUCAGAUUCUGGUGAAUCUGCGAAUUCUGCUGUAUAUCUC	0.65
